Reference: the supplement of paper PMC9112550, “Optimization of the antimicrobial peptide Bac7 by deep mutational scanning” (BMC Biology, 2022)

Tested on: Escherichia coli TOP10
Experiment: shrunken log2 fold change of peptide-encoding DNA abundance (4.5 h post-induction vs induction); higher = less antimicrobial activity (less host growth inhibition)
Details: time post-induction: 4.5 h; library: site-saturation at positions 5, 18, 19, 20
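Note: peptides expressed intracellularly from a pBAD plasmid library in pooled LB shake-flask culture, induced with 0.3% L-arabinose, DNA abundance read by NGS, three biological replicates, DESeq2 with apeglm shrinkage.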

Sequence | shrunken log2 fold change
RRIRRRPPRLPRPRPRPRNYPRP | 0.143
RRIRDRPPRLPRPRPRPQDIPRP | -0.00598
RRIRARPPRLPRPRPRPEFDPRP | 1.44
RRIRCRPPRLPRPRPRPHTEPRP | -0.273
RRIRERPPRLPRPRPRPLRGPRP | 0.529
RRIRSRPPRLPRPRPRPRAPPRP | 0.716
RRIRARPPRLPRPRPRPYVWPRP | 0.053
RRIRPRPPRLPRPRPRPCWKPRP | -0.0855
RRIRKRPPRLPRPRPRPGWSPRP | 3
RRIRFRPPRLPRPRPRPLNQPRP | -0.282
RRIRHRPPRLPRPRPRPYGGPRP | -0.91
RRIRARPPRLPRPRPRPNCLPRP | -0.111
RRIRVRPPRLPRPRPRPMEYPRP | -0.0697
RRIRRRPPRLPRPRPRPRYAPRP | 0.284
RRIRPRPPRLPRPRPRPTPPPRP | 0.477
RRIRQRPPRLPRPRPRPRDQPRP | -0.0332
RRIRFRPPRLPRPRPRPVMDPRP | -0.378
RRIRPRPPRLPRPRPRPMDDPRP | 0.00641
RRIRCRPPRLPRPRPRPCCVPRP | -0.409
RRIRGRPPRLPRPRPRPAGCPRP | 0.973
RRIRSRPPRLPRPRPRPNWAPRP | 0.64
RRIRDRPPRLPRPRPRPIVLPRP | -0.176
RRIRIRPPRLPRPRPRPCIMPRP | -0.466
RRIRKRPPRLPRPRPRPEERPRP | 1.23
RRIRKRPPRLPRPRPRPFPGPRP | -0.0018

Sequence | shrunken log2 fold change
RRIRMRPPRLPRPRPRPKRGPRP | -0.0058
RRIRFRPPRLPRPRPRPGWTPRP | -0.115
RRIRFRPPRLPRPRPRPFRIPRP | -0.687
RRIRNRPPRLPRPRPRPGNNPRP | -0.492
RRIRDRPPRLPRPRPRPVCIPRP | 0.0226
RRIRRRPPRLPRPRPRPETSPRP | 0.4
RRIRMRPPRLPRPRPRPDKFPRP | 0.194
RRIRLRPPRLPRPRPRPMMWPRP | 0.148
RRIRMRPPRLPRPRPRPRNLPRP | 0.0196
RRIRERPPRLPRPRPRPHLYPRP | -0.858
RRIRNRPPRLPRPRPRPHANPRP | 0.0684
RRIRCRPPRLPRPRPRPPAGPRP | 0.79
RRIRDRPPRLPRPRPRPYSYPRP | -0.0279
RRIRYRPPRLPRPRPRPNYNPRP | -1.43
RRIRPRPPRLPRPRPRPETRPRP | 0.187
RRIRQRPPRLPRPRPRPPIAPRP | 0.104
RRIRYRPPRLPRPRPRPQYTPRP | -1.34
RRIRPRPPRLPRPRPRPMHCPRP | -0.0698
RRIRCRPPRLPRPRPRPQRAPRP | -0.012
RRIRYRPPRLPRPRPRPFNKPRP | -0.00496
RRIRARPPRLPRPRPRPILQPRP | 0.0186
RRIRCRPPRLPRPRPRPNITPRP | -0.884
RRIRYRPPRLPRPRPRPWNHPRP | -0.00776
RRIRIRPPRLPRPRPRPNTPPRP | -0.487
RRIRNRPPRLPRPRPRPAYVPRP | -0.0369
